# Source: US20080216185
# System: phiC31 integrase (Streptomyces phage phiC31?)
# Assay: cell_activity
# Conditions: for activity: integration of attB plasmid
Substance,activity (BG01v) [clones],also measured
phiC31 attB (pB2H1-DEST derived plasmids),,"activity (fold colonies over random integration) (114 vs 80 colonies with/without integrase, BG01v hESC): 1.4"
pseudo attP 2q35,2,
pseudo attP 6p11.2 (PRIM2A intron 5),5,
pseudo attP 9q31.2,,activity (BG01v and SA002): 3 clones
pseudo attP 13q32.3 (CLYBL intron 2),,"activity (of 51 integrase-mediated clones, BG01v and SA002): 17 clones"
pseudo attP 17q23.3 (TLK2/MRC2 intergenic),4,
pseudo attP 21q21.1,2,
